B1: ZBTB22 (parent)
chain: RPFDCPVCNKKFKMKHHLTEHMKT

Variants of: B1
Experiment: protein stability index of a GFP-peptide fusion (GPS, HEK-293T) (PSI 1-6); higher = more stable
Conditions: c terminus: a fixed tail appended
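Further: lentivirally expressed fusions sorted by FACS into six bins by GFP to DsRed ratio, PSI derived from sequencing read proportions per bin multiplied by bin number.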

| Variant | protein stability index |
| --- | --- |
| RPFDCPVCNKKFKMKHHLTVHMKT [E20V] | 2.36 |
| RPFDCPVCNKKFKMKHHLTRHMKT [E20R] | 3.45 |
| RPFDCPVCNKKFKMKHHLTWHMKT [E20W] | 2.08 |
| RPFDCPVCNKKLKMKHHLTEHMKT [F12L] | 2.38 |
| RPFDCPVCNKKHKMKHHLTEHMKT [F12H] | 2.6 |
| RPFDCPVCNKKFKMKVHLTEHMKT [H16V] | 2.08 |
| RPFDCPVCNKKFKMKFHLTEHMKT [H16F] | 1.9 |
| RPFDCPVCNKKFKMKSHLTEHMKT [H16S] | 2.83 |
| RPFDCPVCNKKFKMKLHLTEHMKT [H16L] | 2.56 |
| RPFDCPVCNKKFKMKHHLTEHMKP [T24P] | 2.45 |
| RPFDCPVCNKKFKMKHHLTEHMKM [T24M] | 2.5 |
| RPFDCPVCNKKFKMKHHLTEHMKS [T24S] | 2.53 |
| RPFDCPVCNKKFKMKHHLTERMKT [H21R] | 2.25 |
| RPFDCPQCNKKFKMKHHLTEHMKT [V7Q] | 2.45 |
| RPFDCPFCNKKFKMKHHLTEHMKT [V7F] | 3.21 |
| RPFDCPDCNKKFKMKHHLTEHMKT [V7D] | 2.82 |
| RPFDCPMCNKKFKMKHHLTEHMKT [V7M] | 2.25 |
| RPFDCPLCNKKFKMKHHLTEHMKT [V7L] | 2.53 |
| RPFDCPVCNLKFKMKHHLTEHMKT [K10L] | 2.19 |
| RPFDCPVCNYKFKMKHHLTEHMKT [K10Y] | 2.29 |
| RPFDCPVCNNKFKMKHHLTEHMKT [K10N] | 2.45 |
| RPFDCPVCNVKFKMKHHLTEHMKT [K10V] | 2.11 |
| RPFDCPVCNIKFKMKHHLTEHMKT [K10I] | 2.03 |
| RPFDCPVCNKKFKMKHDLTEHMKT [H17D] | 3.07 |

| Variant | protein stability index |
| --- | --- |
| RPFDCPVCNKKFKMKHNLTEHMKT [H17N] | 2.62 |
| RPFDCPVCNKKFKMKHSLTEHMKT [H17S] | 2.42 |
| RPFFCPVCNKKFKMKHHLTEHMKT [D4F] | 2.95 |
| RPFRCPVCNKKFKMKHHLTEHMKT [D4R] | 3.1 |
| RPFYCPVCNKKFKMKHHLTEHMKT [D4Y] | 3.25 |
| RPFTCPVCNKKFKMKHHLTEHMKT [D4T] | 3.43 |
| RPFDCPVANKKFKMKHHLTEHMKT [C8A] | 2.99 |
| RPFDCPVHNKKFKMKHHLTEHMKT [C8H] | 3 |
| RPFDCPVSNKKFKMKHHLTEHMKT [C8S] | 3.03 |
| RPFDCPVCNKKFKMEHHLTEHMKT [K15E] | 3.73 |
| RPFDCPVCNKKFKMLHHLTEHMKT [K15L] | 2.65 |
| RPFDCPVCNKKFKMTHHLTEHMKT [K15T] | 1.87 |
| RPFDCPVCNKKFKMIHHLTEHMKT [K15I] | 1.76 |
| RPMDCPVCNKKFKMKHHLTEHMKT [F3M] | 2.45 |
| RPADCPVCNKKFKMKHHLTEHMKT [F3A] | 2.58 |
| RPSDCPVCNKKFKMKHHLTEHMKT [F3S] | 2.58 |
| RPTDCPVCNKKFKMKHHLTEHMKT [F3T] | 3.09 |
| RPFDCPVCHKKFKMKHHLTEHMKT [N9H] | 3.23 |
| RPFDCPVCEKKFKMKHHLTEHMKT [N9E] | 3.36 |
| RPFDCPVCSKKFKMKHHLTEHMKT [N9S] | 2.43 |
| RPFDCPVCQKKFKMKHHLTEHMKT [N9Q] | 2.33 |
| RPFDCPVCIKKFKMKHHLTEHMKT [N9I] | 1.92 |
| RPFDCPVCGKKFKMKHHLTEHMKT [N9G] | 3.59 |
| RPFDCPVCYKKFKMKHHLTEHMKT [N9Y] | 2.07 |

| Variant | protein stability index |
| --- | --- |
| RNFDCPVCNKKFKMKHHLTEHMKT [P2N] | 2.34 |
| RIFDCPVCNKKFKMKHHLTEHMKT [P2I] | 2.37 |
| RPFDCPVCNKKFKMKHHLTEHPKT [M22P] | 2.48 |
| RPFDCPVCNKKFKMKHHLTEHDKT [M22D] | 3.1 |
| RPFDCPVCNKKFKMKHHLAEHMKT [T19A] | 2.89 |
| RPFDCPVCNKKFKMKHHLYEHMKT [T19Y] | 2.41 |
| RPFDCPVCNKKFKMKHHLWEHMKT [T19W] | 2.02 |
| RPFDCPVCNKKFKMKHHLDEHMKT [T19D] | 3.19 |
| RPFDCPVCNKKFKMKHHLGEHMKT [T19G] | 3.17 |
| RPFDCPVCNKKFKMKHHLVEHMKT [T19V] | 3 |
| RPFDWPVCNKKFKMKHHLTEHMKT [C5W] | 2.41 |
| RPFDVPVCNKKFKMKHHLTEHMKT [C5V] | 2.61 |
| RPFDCPVCNKKFKMKHHLTEHMTT [K23T] | 2.38 |
| RPFDCPVCNKKFKMKHHLTEHMRT [K23R] | 2.26 |
| RPFDCPVCNKKFKMKHHLTEHMET [K23E] | 2.39 |
| RPFDCPVCNKKFKMKHHLTEHMAT [K23A] | 2.3 |
| RPFDCPVCNKKFKMKHHLTEHMFT [K23F] | 1.95 |
| RPFDCPVCNKKFKMKHHLTEHMCT [K23C] | 4.19 |
| RPFDCPVCNKKFKMKHHLTEHMLT [K23L] | 2.38 |
| RPFDCPVCNKKFKMKHHLTEHMPT [K23P] | 2.48 |
| RPFDCPVCNKKFKMKHHLTEHMNT [K23N] | 3.29 |
| RPFDCPVCNKKFKGKHHLTEHMKT [M14G] | 2.69 |
| RPFDCPVCNKKFKYKHHLTEHMKT [M14Y] | 3.1 |
| RPFDCPVCNKKFKIKHHLTEHMKT [M14I] | 2.35 |

| Variant | protein stability index |
| --- | --- |
| RPFDCPVCNKKFKQKHHLTEHMKT [M14Q] | 3.17 |
| RPFDCPVCNKKFKSKHHLTEHMKT [M14S] | 3.96 |
| RPFDCPVCNKSFKMKHHLTEHMKT [K11S] | 3.12 |
| RPFDCPVCNKKFKMKHHDTEHMKT [L18D] | 2.39 |
| RPFDCPVCNKKFKMKHHFTEHMKT [L18F] | 2.7 |
| RPFDCPVCNKKFKMKHHQTEHMKT [L18Q] | 2.58 |
| RPFDCPVCNKKFKMKHHITEHMKT [L18I] | 2.1 |
| RPFDCPVCNKKFKMKHHRTEHMKT [L18R] | 2.89 |
| RPFDCPVCNKKFKMKHHATEHMKT [L18A] | 2.93 |
| RPFDCGVCNKKFKMKHHLTEHMKT [P6G] | 2.1 |
| RPFDCYVCNKKFKMKHHLTEHMKT [P6Y] | 2.25 |
| RPFDCLVCNKKFKMKHHLTEHMKT [P6L] | 2.68 |
| RPFDCIVCNKKFKMKHHLTEHMKT [P6I] | 2.03 |
| RPFDCDVCNKKFKMKHHLTEHMKT [P6D] | 3.46 |
| RPFDCCVCNKKFKMKHHLTEHMKT [P6C] | 2.21 |
| RPFDCRVCNKKFKMKHHLTEHMKT [P6R] | 2.12 |
| CPFDCPVCNKKFKMKHHLTEHMKT [R1C] | 3.18 |
| EPFDCPVCNKKFKMKHHLTEHMKT [R1E] | 3.67 |
| RPFDCPVCNKKFGMKHHLTEHMKT [K13G] | 2.6 |
| RPFDCPVCNKKFTMKHHLTEHMKT [K13T] | 3.12 |
| RPFDCPVCNKKFCMKHHLTEHMKT [K13C] | 4.49 |
| RPFDCPVCNKKFRMKHHLTEHMKT [K13R] | 2.33 |

From the supplement of paper PMC10567573
